Measurements from publication PMC5300761.
“And” between values parts separate entries of the source, which are not always exact repeats. Identical values can stand only once.

Assays:
CRD-BP WT (mouse) [1] = biological target: CRD-BP WT (mouse) (UniProt O88477); assay: EMSA; conditions: EMSA as in refs 21,22 (buffer not given; competitor preincubation 35 C), FP: binding buffer stock 10 mM Tris-HCl pH 7.4, 2.5 mM EDTA, 5% glycerol, 0.002% …
CRD-BP KH4 G504D (mouse) = CRD-BP KH4 G504D (mouse) (UniProt O88477); assay: EMSA; conditions: EMSA as in refs 21,22 (buffer not given; competitor preincubation 35 C); FP: binding buffer stock 10 mM Tris-HCl pH 7.4, 2.5 mM EDTA, 5% glycerol, 0.002% …
CRD-BP Y5A Y5A (mouse) = CRD-BP Y5A Y5A (mouse) (UniProt O88477); assay: EMSA; conditions: EMSA as in refs 21,22 (buffer not given; competitor preincubation 35 C); FP: binding buffer stock 10 mM Tris-HCl pH 7.4, 2.5 mM EDTA, 5% glycerol, 0.002% …
CRD-BP KH3 G422D (mouse) = CRD-BP KH3 G422D (mouse) (UniProt O88477); assay: EMSA; conditions: EMSA as in refs 21,22 (buffer not given; competitor preincubation 35 C); FP: binding buffer stock 10 mM Tris-HCl pH 7.4, 2.5 mM EDTA, 5% glycerol, 0.002% …
[2] = biological target: CRD-BP D526E D526E (mouse) (UniProt O88477); assay: EMSA; conditions: EMSA as in refs 21,22 (buffer not given; competitor preincubation 35 C); FP: binding buffer stock 10 mM Tris-HCl pH 7.4, 2.5 mM EDTA, 5% glycerol, 0.002% …
CRD-BP KH1 G212D (mouse) = CRD-BP KH1 G212D (mouse) (UniProt O88477); assay: EMSA; conditions: EMSA as in refs 21,22 (buffer not given; competitor preincubation 35 C); FP: binding buffer stock 10 mM Tris-HCl pH 7.4, 2.5 mM EDTA, 5% glycerol, 0.002% …
[3] = biological target: CRD-BP KH3-4 G422D;G504D (mouse) (UniProt O88477); assay: EMSA; conditions: EMSA as in refs 21,22 (buffer not given; competitor preincubation 35 C); FP: binding buffer stock 10 mM Tris-HCl pH 7.4, 2.5 mM EDTA, 5% glycerol, 0.002% …
CRD-BP KH2 G293D (mouse) = CRD-BP KH2 G293D (mouse) (UniProt O88477); assay: EMSA; conditions: EMSA as in refs 21,22 (buffer not given; competitor preincubation 35 C); FP: binding buffer stock 10 mM Tris-HCl pH 7.4, 2.5 mM EDTA, 5% glycerol, 0.002% …
CRD-BP WT (mouse) [4] = biological target: CRD-BP WT (mouse) (UniProt O88477); assay: competition; conditions: EMSA as in refs 21,22 (buffer not given; competitor preincubation 35 C); FP: binding buffer stock 10 mM Tris-HCl pH 7.4, 2.5 mM EDTA, 5% glycerol, 0.002% …
CRD-BP KH3-4 (mouse) = assay: EMSA; conditions: EMSA as in refs 21,22 (buffer not given; competitor preincubation 35 C); FP: binding buffer stock 10 mM Tris-HCl pH 7.4, 2.5 mM EDTA, 5% glycerol, 0.002% …
CRD-BP D526E (mouse) = assay: EMSA; conditions: EMSA as in refs 21,22 (buffer not given; competitor preincubation 35 C); FP: binding buffer stock 10 mM Tris-HCl pH 7.4, 2.5 mM EDTA, 5% glycerol, 0.002% …
CRD-BP Y5A (mouse) = assay: EMSA; conditions: EMSA as in refs 21,22 (buffer not given; competitor preincubation 35 C); FP: binding buffer stock 10 mM Tris-HCl pH 7.4, 2.5 mM EDTA, 5% glycerol, 0.002% …

Sequence of CRD-BP WT (mouse) (O88477 whole entry): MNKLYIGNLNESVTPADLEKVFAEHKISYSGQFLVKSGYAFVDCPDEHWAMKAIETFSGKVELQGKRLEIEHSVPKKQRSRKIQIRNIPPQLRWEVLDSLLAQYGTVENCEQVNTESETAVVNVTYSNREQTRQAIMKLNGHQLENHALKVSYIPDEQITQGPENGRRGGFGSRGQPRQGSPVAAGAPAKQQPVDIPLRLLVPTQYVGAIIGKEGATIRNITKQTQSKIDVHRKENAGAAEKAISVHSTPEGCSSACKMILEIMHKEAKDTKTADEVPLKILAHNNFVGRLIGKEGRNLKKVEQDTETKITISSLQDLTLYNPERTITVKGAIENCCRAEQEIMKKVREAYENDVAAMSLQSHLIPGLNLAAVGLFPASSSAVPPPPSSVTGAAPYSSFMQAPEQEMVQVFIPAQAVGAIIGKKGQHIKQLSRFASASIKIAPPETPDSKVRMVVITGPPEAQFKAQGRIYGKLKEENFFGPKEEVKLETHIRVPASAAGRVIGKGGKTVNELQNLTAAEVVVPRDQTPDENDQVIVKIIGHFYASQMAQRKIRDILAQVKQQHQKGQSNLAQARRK
Sequence of CRD-BP KH2 G293D (mouse) (O88477 whole entry G293D): as the sequence (O88477 whole entry) above, with G293D counted along it
Sequence of CRD-BP KH3 G422D (mouse) (O88477 whole entry G422D): as the sequence (O88477 whole entry) above, with G422D counted along it
Sequence of CRD-BP Y5A Y5A (mouse) (O88477 other isoform, or with tags, fused parts or gaps): as the sequence (O88477 whole entry) above, with Y5A counted along it
Sequence of CRD-BP KH3-4 G422D;G504D (mouse) (O88477 whole entry G422D/G504D): as the sequence (O88477 whole entry) above, with G422D, G504D counted along it
Sequence of CRD-BP D526E D526E (mouse) (O88477 whole entry D526E): as the sequence (O88477 whole entry) above, with D526E counted along it
Sequence of CRD-BP KH1 G212D (mouse) (O88477 whole entry G212D): as the sequence (O88477 whole entry) above, with G212D counted along it
Sequence of CRD-BP KH4 G504D (mouse) (O88477 whole entry G504D): as the sequence (O88477 whole entry) above, with G504D counted along it

## GGACACUUGUUAGCGAAUCCUCCCUGCACUGCAUUCGCACAAACUGCUUCCUUUCUUGAUUCGUAGAUUUAAUAACUUACCUGAAGGGGUUUUCUUGAUAAUUUUCCUUUAAUAUGAAAUUUUUUUUCAUGCUUUAUCAAUAGCCCAGGAUAUAUUUUAUUUUUAGAAUUUUGUGAAACAGACUUGUAUAUUCUAUUUUACAACUACAAAUGCCUCCAAAGUA [MITF RNA 1330-1550]
CRD-BP WT (mouse) [1]
  binding: binds more weakly

## GGAUUGUACAAAUAAGUGUGCAGUAUCUGUGAACUGAAUUCACCACAGACUUUAGCUUUCUGAGCAAGAGGA [MITF RNA 1550-1619]
CRD-BP WT (mouse) [1]
  binding: no binding

## GGAUUGUACAAAUAAGUGUGCAGUAUCUGUGAACUGAAUUCACCACAGACUUUAGCUUUCUGAGCAAGAGGAUUUUGCGUCAGAGAAAUGUCUGUCCAUUUUUAUUCAGGGGAAACUUGAUU [MITF RNA 1550-1669]
CRD-BP WT (mouse) [1]
  binding: binds

## GGAUUGUACAAAUAAGUGUGCAGUAUCUGUGAACUGAAUUCACCACAGACUUUAGCUUUCUGAGCAAGAGGAUUUUGCGUCAGAGAAAUGUCUGUCCAUUUUUAUUCAGGGGAAACUUGAUUUGAGAUUUUUAUGCCUGUGACUUCCUUGGAAAUCAAA [MITF RNA 1550-1709]
CRD-BP WT (mouse) [1]
  binding: binds

## GGAUUGUACAAAUAAGUGUGCAGUAUCUGUGAACUGAAUUCACCACAGACUUUAGCUUUCUGAGCAAGAGGAUUUUGCGUCAGAGAAAUGUCUGUCCAUUUUUAUUCAGGGGAAACUUGAUUUGAGAUUUUUAUGCCUGUGACUUCCUUGGAAAUCAAAUGUAAAGUUUAAUUGAAAGAAUGUAAAGCAACCA [MITF RNA 1550-1740]
CRD-BP KH4 G504D (mouse)
  binding: no binding
CRD-BP Y5A Y5A (mouse)
  Kd: 85 nM
CRD-BP KH3 G422D (mouse)
  binding: no binding
[2]
  Kd: 91 nM
CRD-BP WT (mouse) [1]
  Kd: 323 nM and 132 nM
  binding: binds
CRD-BP KH1 G212D (mouse)
  binding: binds
[3]
  Kd: 155 nM
CRD-BP KH2 G293D (mouse)
  binding: no binding
CRD-BP WT (mouse) [4]
  binding: binds

## GGCUGAAUUCACCACAGACUUUAGCUUUCUGAGCAAGAGGAUUUUGCGUCAGAGAAAUGUCUGUCCAUUUUUAUUCAGGGGAAACUUGAUUUGAGAUUUUUAUGCCUGUGACUUCCUUGGAAAUCAAAUGUAAAGUUUAAUUGAAAGAAUGUAAAGCAACCA [MITF RNA 1581-1740]
CRD-BP WT (mouse) [1]
  binding: binds

## GGUUUGCGUCAGAGAAAUGUCUGUCCAUUUUUAUUCAGGGGAAACUUGAUUUGAGAUUUUUAUGCCUGUGACUUCCUUGGAAAUCAAAUGUAAAGUUUAAUUGAAAGAAUGUAAAGCAACCA [MITF RNA 1621-1740]
CRD-BP WT (mouse) [1]
  binding: binds

## MITF RNA 1550-1740
CRD-BP KH3-4 (mouse)
  Kd: 155 nM
CRD-BP WT (mouse) [1]; 40 nM RNA, compared with deletion RNA
  Kd: 323 nM
CRD-BP WT (mouse) [1]
  Kd: 132 nM
CRD-BP D526E (mouse)
  Kd: 91 nM
CRD-BP Y5A (mouse)
  Kd: 85 nM

## MITF RNA 1550-1740 (del1621-1669)
CRD-BP WT (mouse) [1]; 40 nM RNA
  Kd: 970 nM
